Measured values from US20230303660A1.

Molecular target: human 4-1BB (human) (UniProt Q07011)
Test: cell-based or functional assay

Chain of human 4-1BB (human) (Q07011 24-255): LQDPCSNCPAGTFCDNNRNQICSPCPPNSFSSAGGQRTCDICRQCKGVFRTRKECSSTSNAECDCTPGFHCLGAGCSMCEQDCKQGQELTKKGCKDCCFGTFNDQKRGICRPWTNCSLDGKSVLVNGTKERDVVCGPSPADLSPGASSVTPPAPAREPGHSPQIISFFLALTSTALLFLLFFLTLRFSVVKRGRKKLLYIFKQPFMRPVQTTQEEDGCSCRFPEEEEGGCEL

NF-κB activation measured through eCFP expression (fold induction): 2.5 fold
Substance: human 4-1BBL expressed on T cell stimulator cells (from UniProt P41273 1-254) (ligand)
